The source of these data is the supplement of paper PMC6379048.

For orientation: EC50 means the concentration giving half of the maximal effect.

Common to all, as to assay: EC50 of free RNA motif oligo competing protein binding to immobilised probe
In one series the target is T1, XAB2 (UniProt Q9HCS7).
T1 sequence: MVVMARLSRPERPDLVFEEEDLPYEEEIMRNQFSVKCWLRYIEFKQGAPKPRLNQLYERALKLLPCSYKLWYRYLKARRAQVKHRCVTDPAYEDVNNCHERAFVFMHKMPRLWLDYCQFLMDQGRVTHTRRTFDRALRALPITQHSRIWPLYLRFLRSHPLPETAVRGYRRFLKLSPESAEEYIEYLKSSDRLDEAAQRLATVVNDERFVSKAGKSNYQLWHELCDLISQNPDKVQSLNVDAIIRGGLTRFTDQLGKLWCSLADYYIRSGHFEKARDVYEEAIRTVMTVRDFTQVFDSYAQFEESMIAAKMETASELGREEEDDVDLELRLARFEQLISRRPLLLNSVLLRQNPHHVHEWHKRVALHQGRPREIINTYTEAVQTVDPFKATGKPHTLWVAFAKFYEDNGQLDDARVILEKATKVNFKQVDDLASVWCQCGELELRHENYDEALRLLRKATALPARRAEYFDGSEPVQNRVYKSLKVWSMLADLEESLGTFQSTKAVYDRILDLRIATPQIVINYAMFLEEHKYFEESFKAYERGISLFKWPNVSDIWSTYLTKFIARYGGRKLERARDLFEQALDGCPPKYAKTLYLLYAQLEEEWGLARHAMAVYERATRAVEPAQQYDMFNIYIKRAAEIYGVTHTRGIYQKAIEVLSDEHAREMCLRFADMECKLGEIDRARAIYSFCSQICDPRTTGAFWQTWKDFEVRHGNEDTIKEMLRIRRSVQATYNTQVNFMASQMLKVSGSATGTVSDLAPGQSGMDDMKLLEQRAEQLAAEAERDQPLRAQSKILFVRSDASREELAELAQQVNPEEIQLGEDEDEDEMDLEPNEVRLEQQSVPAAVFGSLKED
A digest of the protocol: (§1)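 Free RNA oligos (0 nM to 30 μM) competed for 1 h at 4°C in HEK293-FT lysate (2.5 mg protein/well) before a 30 min, 4°C pulldown with the same oligos on NHS-Sepharose beads. Bound proteins were quantified by label-free LC-MS/MS and normalised to the control. Kd was found by multiplying EC50, from a four-parameter log-logistic fit, by a protein-dependent depletion factor.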

A further series concerns the target T2, SRSF3 (UniProt P84103).
T2 sequence: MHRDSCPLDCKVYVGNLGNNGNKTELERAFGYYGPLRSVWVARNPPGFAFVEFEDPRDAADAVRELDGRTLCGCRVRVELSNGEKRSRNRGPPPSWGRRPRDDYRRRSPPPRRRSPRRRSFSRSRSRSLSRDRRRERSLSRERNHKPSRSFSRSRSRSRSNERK
In short, it runs like this: as §1

The target of a further series is ZCCHC24 (UniProt Q8N2G6). A digest of the protocol:
as §1

A further series has as its target T3, CMTR1 (UniProt Q8N1G2).
T3 sequence: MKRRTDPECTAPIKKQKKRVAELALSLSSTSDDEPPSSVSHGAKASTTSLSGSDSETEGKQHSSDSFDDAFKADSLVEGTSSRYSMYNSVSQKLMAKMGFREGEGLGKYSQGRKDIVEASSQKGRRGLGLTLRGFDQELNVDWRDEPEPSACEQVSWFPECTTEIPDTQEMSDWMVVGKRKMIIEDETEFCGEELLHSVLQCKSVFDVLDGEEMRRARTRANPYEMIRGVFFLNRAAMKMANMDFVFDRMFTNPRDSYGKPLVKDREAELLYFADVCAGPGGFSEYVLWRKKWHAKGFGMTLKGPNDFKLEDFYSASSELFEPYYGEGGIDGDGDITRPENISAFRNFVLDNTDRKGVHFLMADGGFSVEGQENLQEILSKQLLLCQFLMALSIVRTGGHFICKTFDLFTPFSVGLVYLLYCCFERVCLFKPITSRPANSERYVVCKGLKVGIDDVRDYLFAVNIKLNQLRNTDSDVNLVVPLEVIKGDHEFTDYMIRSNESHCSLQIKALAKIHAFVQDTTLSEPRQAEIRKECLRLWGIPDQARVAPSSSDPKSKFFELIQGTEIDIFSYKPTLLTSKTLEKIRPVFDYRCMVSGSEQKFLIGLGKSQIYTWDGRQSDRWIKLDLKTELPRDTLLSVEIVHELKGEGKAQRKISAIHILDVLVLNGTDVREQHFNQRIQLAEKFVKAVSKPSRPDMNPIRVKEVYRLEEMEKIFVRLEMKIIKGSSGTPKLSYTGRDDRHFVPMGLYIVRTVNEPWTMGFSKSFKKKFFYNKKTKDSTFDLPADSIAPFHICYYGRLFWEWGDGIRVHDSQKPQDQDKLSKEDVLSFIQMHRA
A digest of the protocol: as §1

The target in a further series is SRSF9 (UniProt Q13242). In short, it runs like this: as §1
Sequence of SRSF9 (Q13242 whole entry): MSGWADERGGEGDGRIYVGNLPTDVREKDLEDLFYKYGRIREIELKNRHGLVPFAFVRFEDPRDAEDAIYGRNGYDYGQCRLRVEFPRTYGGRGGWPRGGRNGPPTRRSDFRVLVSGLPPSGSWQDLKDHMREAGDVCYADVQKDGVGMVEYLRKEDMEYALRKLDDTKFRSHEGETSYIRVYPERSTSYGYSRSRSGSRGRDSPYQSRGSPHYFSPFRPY

Sequence of ZCCHC24 (Q8N2G6 whole entry): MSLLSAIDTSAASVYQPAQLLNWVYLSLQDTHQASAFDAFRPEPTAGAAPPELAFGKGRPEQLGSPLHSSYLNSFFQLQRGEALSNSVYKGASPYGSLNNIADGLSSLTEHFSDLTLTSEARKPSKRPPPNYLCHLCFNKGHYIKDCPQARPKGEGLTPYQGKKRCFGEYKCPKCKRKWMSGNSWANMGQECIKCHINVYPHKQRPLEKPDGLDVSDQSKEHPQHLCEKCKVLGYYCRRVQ

On to AAUAAA, for which the EC50 was 1370 nM with XAB2, 3030 nM in the series with SRSF3, 545 nM with ZCCHC24 and 298 nM with CMTR1.

For CUGUCCU, the EC50 in the series with SRSF3 turned out to be 2620 nM; with SRSF9 it was 4530 nM.

As for UAUUUAU, the half-maximal effective concentration (EC50) with XAB2 worked out at 601 nM; with ZCCHC24, 2520 nM; with CMTR1, 1200 nM; in the series with SRSF9 it was 8030 nM.
